Where a chain is given by its changes, count along the chain named. Names and notes keep the numbering of the source. One block for each binder: values may come before it.
Assays:
[1] = target: glucagon-like peptide-1 receptor (UniProt P43220 24-463, limits assumed); assay: cell-based or functional assay
[2] = target: the molecule itself; assay: SEC (size exclusion HPLC), self-association of the Fc into a homodimer
Experimental: (§1) In this example, the effects of introducing different mutations on the structural properties of Fc were tested, and the test results of some mutants are shown in Table 5. Test steps include:
(§2) Molecular cloning method was used to insert Fc nucleic acid sequence into mammalian cell expression vector, and ExpiCHO Fectamine™ CHO Transfection Kit (ThermoFisher Scientific) was used for transient transfection and expression in CHO-S cells; after purification by Protein A column, the target protein was obtained, and the target protein was analyzed by size exclusion high performance liquid chromatography (SEC). The main principle of SEC analysis is based on the molecular weight and three-dimensional structure of the analyte (such as protein). Generally, analytes with larger molecular weights will pass through the chromatographic column more quickly, so they have a shorter column retention time. On the contrary, analytes with smaller molecular weights have longer retention times. So SEC can be used to analyze the aggregation of protein molecules.

[3] = target: the molecule itself; assay: SEC (size exclusion HPLC), self-association of the Fc
Experimental: as §1, §2

GLP-1 activity (EC50, nM): intracellular cAMP in HEK293 cells with high GLP-1R expression [1]: 0.1 nM
B2: GLP-1-Fc-GDF15 fusion protein D9 (Fc fusion)
chain: HGEGTFTSDVSSYLEEQAAKEFIAWLVKGGGGGGGSGGGGSGGGGSAPEAAGGPSVFLFPPKPKDTLMISRTPEVTCVVVDVSQEDPEVQFNWYVDGVEVHNAKTKPREEQFNSTYRVVSVLTVLHQDWLNGKEYKCKVSNKGLPSSIEKTISKAKGQPREPQVYTLPPSQEEMTKNQVSLTCLVKGFYPSDIAVEWESNGQPENNYKTTPPVLDSDGSFFLYSRLTVDKSRWQEGNVFSCSVMHEALHNHYTQQSLSLSLGGGGGSGGGGSAPAPAPAPAPAPAPAPAPAPGGGGSGGGGSDHCPLGPGRCCRLHTVRASLEDLGWADWVLSPREVQVTMCIGACPSQFRAANMHAQIKTSLHRLKPDTVPAPCCVPASYNPMVLIQKTDTGVSLQTYDDLLAKDCHCI

GLP-1 activity (EC50, nM): intracellular cAMP in HEK293 cells with high GLP-1R expression [1]: 0.118 nM
B6: GLP-1-Fc-GDF15 fusion protein D11 (Fc fusion)
chain: HGEGTFTSDVSSYLEEQAAKEFIAWLVKGGGGGGGSGGGGSGGGGSEAAGGPSVFLFPPKPKDTLMISRTPEVTCVVVDVSQEDPEVQFNWYVDGVEVHNAKTKPREEQFNSTYRVVSVLTVLHQDWLNGKEYKCKVSNKGLPSSIEKTISKAKGQPREPQVYTLPPSQEEMTKNQVSLTCLVKGFYPSDIAVEWESNGQPENNYKTTPPVLDSDGSFFLYSRLTVDKSRWQEGNVFSCSVMHEALHNHYTQESLSLSLGGGGGSGGGGSAPAPAPAPAPAPAPAPAPAPGGGGSGGGGSDHCPLGPGRCCRLHTVRASLEDLGWADWVLSPREVQVTMCIGACPSQFRAANMHAQIKTSLHRLKPDTVPAPCCVPASYNPMVLIQKTDTGVSLQTYDDLLAKDCHCI

GLP-1 activity (EC50, nM): intracellular cAMP in HEK293 cells with high GLP-1R expression [1]: 0.183 nM
B7: GLP-1-Fc-GDF15 fusion protein D14 (Fc fusion)
chain: B6 chain with I23V, A24Q

GLP-1 activity (EC50, nM): intracellular cAMP in HEK293 cells with high GLP-1R expression [1]: 0.124 nM
B8: GLP-1-Fc-GDF15 fusion protein D13 (Fc fusion)
chain: B6 chain with A24Q

The remaining lines, values behind:

B1: GLP-1-Fc-GDF15 fusion protein D8 (Fc fusion)
chain: B2 chain with Q255E
GLP-1 activity (EC50, nM): intracellular cAMP in HEK293 cells with high GLP-1R expression [1]: 0.084 nM

B3: IgG4 Fc (AA, K439E) (other)
chain: EAAGGPSVFLFPPKPKDTLMISRTPEVTCVVVDVSQEDPEVQFNWYVDGVEVHNAKTKPREEQFNSTYRVVSVLTVLHQDWLNGKEYKCKVSNKGLPSSIEKTISKAKGQPREPQVYTLPPSQEEMTKNQVSLTCLVKGFYPSDIAVEWESNGQPENNYKTTPPVLDSDGSFFLYSRLTVDKSRWQEGNVFSCSVMHEALHNHYTQESLSLSLG
binding result [2]: binds

B4: IgG4 Fc (AA, K439D) (other)
chain: B3 chain with E207D
binding result [2]: binds

B5: IgG4 Fc (AA, F405Q/Y407E) (other)
chain: B3 chain with F173Q, Y175E, E207K
binding result [3]: no binding

From patent US20250179142A1 (SUNSHINE LAKE PHARMA, published 2025)
